For the experiment, the target named is uncleaved full-length membrane-anchored HIV-1_(JR-FL) Env(-) glycoprotein (HIV-1 (JR-FL)). Kind of experiment: cryo-EM structure.

Results on 1 substance are retold here after publication doi:10.1101/288472.

The stoichiometry N is a count of units in the complex or per binding partner. “uncleaved full-length membrane-anchored HIV-1_(JR-FL) Env(-) glycoprotein (natural protein)” had a stoichiometry N of 3.
